Data on six substances can be found in US20200215180A1.

The target in test [1] is Hyperglycosylated exodomain D1 (from pCRO21), HEK293-expressed (dengue virus serotype 1) (UniProt P27909). As to the kind of experiment: ELISA. For orientation: ELISA stands for enzyme-linked immunosorbent assay.
Test [2] concerns the target Hyperglycosylated exodomain Zika (from pCRO28), HEK293-expressed (Zika virus). As to the kind of experiment: ELISA.
Test [3] concerns the target Hyperglycosylated Zika exodomain (HX), insect (Tni) cell expressed (Zika virus). The test can be described thus: ELISA.
Test [4] addresses Hyperglycosylated dengue-1 exodomain (HX), insect (Tni) cell expressed (dengue virus serotype 1) (UniProt P27909). The test can be described thus: ELISA.
For test [5], the target named is wild-type insect cell expressed Zika exodomain antigen (Zika virus). The test can be described thus: ELISA.
The target in test [6] is Hyperglycosylated exodomain D2 (from pCRO22), HEK293-expressed (dengue virus serotype 2) (UniProt P18356). As to the kind of experiment: ELISA.
Test [7] has as its target Hyperglycosylated exodomain D4 (from pCRO24), HEK293-expressed (dengue virus serotype 4) (UniProt P09866). As to the kind of experiment: ELISA.
In test [8] the target is Hyperglycosylated dengue-2 exodomain (HX), insect (Tni) cell expressed (dengue virus serotype 2) (UniProt P18356). As to the kind of experiment: ELISA.
Test [9] concerns the target Hyperglycosylated exodomain D3 (from pCRO23), HEK293-expressed (dengue virus serotype 3) (UniProt Q6YMS4). The test can be described thus: ELISA.
Test [10] addresses Hyperglycosylated dengue-4 exodomain (HX), insect (Tni) cell expressed (dengue virus serotype 4) (UniProt P09866). As to the kind of experiment: ELISA.
Test [11] has as its target Hyperglycosylated dengue-3 exodomain (HX), insect (Tni) cell expressed (dengue virus serotype 3) (UniProt Q6YMS4). The test can be described thus: ELISA.
Test [12] deals with VLPs. The test can be described thus: competition ELISA, 4G2 in solution phase at 10 micrograms per ml.

“fusion-loop antibody 4G2 (The Native Antigen Company AbFLAVENV-4G2)”: the absorbance in test [1] came to 0.1 absorbance; in [2] it was 0.1 absorbance; in [3] it was 0.1 absorbance; in [4], 0.1 absorbance; in test [5] it was 0.9 absorbance; in test [6] it was 0.1 absorbance. For the same substance, the absorbance in test [7], in test [8], in test [9], in [10] and in test [11] was 0.1 absorbance in each case. The % inhibition (in general, the percentage by which the read-out fell short of the control) in test [12] amounted to 80%.
Regarding ZKA64 (antibody), the absorbance in test [1] is 0.1 absorbance; in test [2] it was 0.9 absorbance; in test [3], 0.7 absorbance; in [4] it was 0.2 absorbance; in [5], 0.8 absorbance; in [6], 0.1 absorbance. The absorbance in [7] is 0.1 absorbance; in [8] it was 0.2 absorbance; in test [9] it was 0.1 absorbance; in test [10], 0.1 absorbance; in [11], 0.2 absorbance.
For the substance “ZV48 anti-Zika neutralizing antibody (The Native Antigen Company MAB12124)”, the absorbance in test [1] was 0 absorbance; in [2] it was 1.2 absorbance; in test [3], 1.1 absorbance; in test [4], 0 absorbance; in test [5], 1.1 absorbance; in test [6], 0 absorbance. Besides, the absorbance in test [7], in test [8], in test [9], in [10] and in test [11] was 0 absorbance throughout.
Consider “Aalto Bioreagents anti-Zika antibody AZ1176-0302156-Lot3889”, for which the absorbance in test [1] was 0.1 absorbance; in [2], 3.1 absorbance; in test [3] it was 2 absorbance; in test [4] it was 0.2 absorbance; in test [5], 1 absorbance; in test [6] it was 0.1 absorbance. Further, the absorbance in [7] is 0.1 absorbance; in test [8] it was 0.1 absorbance; in test [9] it was 0.1 absorbance; in test [10], 0.1 absorbance; in [11] it was 0.3 absorbance.
Turning to ZKA78 (antibody), the absorbance in test [1] was found to be 0 absorbance; in [2], 0 absorbance; in test [3], 0 absorbance; in test [4] it was 0 absorbance; in test [5], 1.4 absorbance; in test [6], 0 absorbance. Also, the absorbance in [7], in [8], in test [9], in test [10] and in test [11] was 0 absorbance throughout.
Turning to “ZV67 anti-Zika neutralizing antibody (The Native Antigen Company MAB12125)”, the absorbance in [1] was determined as 0.1 absorbance; in [2], 1.1 absorbance; in test [3] it was 1.5 absorbance; in test [4], 0.1 absorbance; in test [5], 1.2 absorbance; in test [6], 0 absorbance. Further, the absorbance in [7] turned out to be 0 absorbance; in test [8], 0.1 absorbance; in test [9], 0 absorbance; in [10], 0.1 absorbance; in test [11] it was 0.1 absorbance.
